Experiments:
[1] = system: Type I-B Cas complex (Clo1313_2969-2976; Cas3, Cas5, Cas8, Cas6, DevR) (Clostridium thermocellum); assay: cell_activity
ThermoCas9 = assay: cell_activity; conditions: PAM NNNNCNAA; no cell killing observed

Sequence: CUUGAAGGCAUGAGGGUGUUUUAUGAAACUUGCAAAU / CTTGAAGGCATGAGGGTGTTTTATGAAACTTGCAAAT / ATTTGCAAGTTTCATAAAACACCCTCATGCCTTCAAG
- activity ([1]; no-PAM (GGC) control, target spacer gives 7 CFU/ug): 18000 CFU/µg DNA

Sequence: AUAAUGACAUUUAUGGUACUGUUGUGGUAAUAGACGA / CAGTTAATAATGACATTTATGGTACTGTTGTGGTAATAGACGA / TCGTCTATTACCACAACAGTACCATAAATGTCATTATTAACTG
- activity ([1]; PAM 5'-CAGTTA, plasmid interference, strong spacer promoter, spacer sequence from Table 1 pTY series, scale: fold decrease in transformation efficiency): 10

Sequence: UGAGAUUGUUGCGGAGUAUGUUGAAUCAUGGGGUGAA / TGAGATTGTTGCGGAGTATGTTGAATCATGGGGTGAA / TTCACCCCATGATTCAACATACTCCGCAACAATCTCA [Type I-B pyrF target spacer ; pyrF site, Type I-B, PAM TTA]
- activity (% cell killing) ([1]; PAM 5'-TTA, strain LL1586, chromosomal pyrF, 65.8% with native cas promoter): 99.8

Sequence: GCAUAUUUGUUCUGGUCAAG / GCATATTTGTTCTGGTCAAG / CTTGACCAGAACAAATATGC [ThermoCas9 sgRNA#1 spacer ; pyrF site, ThermoCas9 #1]
- activity (% cell killing) (ThermoCas9): 0

Reference: patent publication US11879134
